Patent publication US20060166332

Target: Cre recombinase (Bacteriophage P1?) (UniProt P06956)
Experiment: cell_activity
Conditions: pCH110 control without loxP in Sure:cre

UniProt P06956, sequence (P06956 whole entry): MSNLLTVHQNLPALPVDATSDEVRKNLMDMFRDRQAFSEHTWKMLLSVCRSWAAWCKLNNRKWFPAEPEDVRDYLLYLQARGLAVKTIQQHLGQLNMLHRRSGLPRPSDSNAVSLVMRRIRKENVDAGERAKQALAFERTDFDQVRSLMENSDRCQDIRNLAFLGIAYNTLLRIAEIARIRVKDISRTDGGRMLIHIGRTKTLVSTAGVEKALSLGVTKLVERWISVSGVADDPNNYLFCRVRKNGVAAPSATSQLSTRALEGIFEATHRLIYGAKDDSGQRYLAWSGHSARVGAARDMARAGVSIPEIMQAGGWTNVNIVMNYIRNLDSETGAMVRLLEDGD

pCH110 plasmid without loxP
activity (% white colonies): 0
